Measured values published in publication PMC8214142 (The Biochemical journal, 2021).
Blank lines part the entries; values can stand above or below the binder they belong to. * marks the point of attachment. Biotin = O=C1N[C@H]2[C@H](CS[C@H]2CCCCC(=O)*)N1

Columns and labels:
[1] = target: T1, WD40 repeat protein 5 (WDR5), human (human, UniProt P61964 1-334); experiment: BLI
[2] = target: T1, WD40 repeat protein 5 (WDR5), human; experiment: SPR

Kd [1]: 250 nM
koff [1]: 0.017 s⁻¹
kon [1]: 71000 M⁻¹ s⁻¹
B1: Biotinyl-(GGS)3SETd1BWin-NH2 (peptide)
peptide: Biotin-GGSGGSGGSEHVTGCARSEGFYT-NH2
SMILES: CC(C)[C@H](NC(=O)[C@H](Cc1c[nH]cn1)NC(=O)[C@H](CCC(=O)O)NC(=O)[C@H](CO)NC(=O)CNC(=O)CNC(=O)[C@H](CO)NC(=O)CNC(=O)CNC(=O)[C@H](CO)NC(=O)CNC(=O)CNC(=O)CCCC[C@@H]1SC[C@@H]2NC(=O)N[C@@H]21)C(=O)N[C@H](C(=O)NCC(=O)N[C@@H](CS)C(=O)N[C@@H](C)C(=O)N[C@@H](CCCNC(=N)N)C(=O)N[C@@H](CO)C(=O)N[C@@H](CCC(=O)O)C(=O)NCC(=O)N[C@@H](Cc1ccccc1)C(=O)N[C@@H](Cc1ccc(O)cc1)C(=O)N[C@H](C(N)=O)[C@@H](C)O)[C@@H](C)O

Kd [1]: 100 nM
koff [1]: 0.0053 s⁻¹
kon [1]: 54000 M⁻¹ s⁻¹
B2: Biotinyl-(GGS)3MLL3Win-NH2 (peptide)
peptide: Biotin-GGSGGSGGSVNPTGCARSEPKMS-NH2
SMILES: CSCC[C@H](NC(=O)[C@H](CCCCN)NC(=O)[C@@H]1CCCN1C(=O)[C@H](CCC(=O)O)NC(=O)[C@H](CO)NC(=O)[C@H](CCCNC(=N)N)NC(=O)[C@H](C)NC(=O)[C@H](CS)NC(=O)CNC(=O)[C@@H](NC(=O)[C@@H]1CCCN1C(=O)[C@H](CC(N)=O)NC(=O)[C@@H](NC(=O)[C@H](CO)NC(=O)CNC(=O)CNC(=O)[C@H](CO)NC(=O)CNC(=O)CNC(=O)[C@H](CO)NC(=O)CNC(=O)CNC(=O)CCCC[C@@H]1SC[C@@H]2NC(=O)N[C@@H]21)C(C)C)[C@@H](C)O)C(=O)N[C@@H](CO)C(N)=O

koff [2]: 0.024 s⁻¹
kon [2]: 340000 M⁻¹ s⁻¹
Binder: {sulforhodamine B}-GGSGGSGGSEHVTGCARSEGFYT-NH2 [Sulforhodamine B-(GGS)3SETd1BWin-NH2]

koff [2]: 0.012 s⁻¹
kon [2]: 370000 M⁻¹ s⁻¹
Binder: {sulforhodamine B}-GGSGGSGGSINPTGCARSEPKIL-NH2 [Sulforhodamine B-(GGS)3MLL2Win-NH2]

Kd [1]: 1700 nM
koff [1]: 0.039 s⁻¹
kon [1]: 23000 M⁻¹ s⁻¹
B3: Biotinyl-(GGS)3MLL4Win-NH2 (peptide)
peptide: Biotin-GGSGGSGGSLNPHGAARAEVYLS-NH2
SMILES: CC(C)C[C@H](NC(=O)[C@H](Cc1ccc(O)cc1)NC(=O)[C@@H](NC(=O)[C@H](CCC(=O)O)NC(=O)[C@H](C)NC(=O)[C@H](CCCNC(=N)N)NC(=O)[C@H](C)NC(=O)[C@H](C)NC(=O)CNC(=O)[C@H](Cc1c[nH]cn1)NC(=O)[C@@H]1CCCN1C(=O)[C@H](CC(N)=O)NC(=O)[C@H](CC(C)C)NC(=O)[C@H](CO)NC(=O)CNC(=O)CNC(=O)[C@H](CO)NC(=O)CNC(=O)CNC(=O)[C@H](CO)NC(=O)CNC(=O)CNC(=O)CCCC[C@@H]1SC[C@@H]2NC(=O)N[C@@H]21)C(C)C)C(=O)N[C@@H](CO)C(N)=O

Kd [1]: 170 nM
koff [1]: 0.0077 s⁻¹
kon [1]: 44000 M⁻¹ s⁻¹
B4: Biotinyl-(GGS)3MLL2Win-NH2 (peptide)
peptide: Biotin-GGSGGSGGSINPTGCARSEPKIL-NH2
SMILES: CC[C@H](C)[C@H](NC(=O)[C@H](CCCCN)NC(=O)[C@@H]1CCCN1C(=O)[C@H](CCC(=O)O)NC(=O)[C@H](CO)NC(=O)[C@H](CCCNC(=N)N)NC(=O)[C@H](C)NC(=O)[C@H](CS)NC(=O)CNC(=O)[C@@H](NC(=O)[C@@H]1CCCN1C(=O)[C@H](CC(N)=O)NC(=O)[C@@H](NC(=O)[C@H](CO)NC(=O)CNC(=O)CNC(=O)[C@H](CO)NC(=O)CNC(=O)CNC(=O)[C@H](CO)NC(=O)CNC(=O)CNC(=O)CCCC[C@@H]1SC[C@@H]2NC(=O)N[C@@H]21)[C@@H](C)CC)[C@@H](C)O)C(=O)N[C@@H](CC(C)C)C(N)=O

koff [2]: 0.041 s⁻¹
kon [2]: 210000 M⁻¹ s⁻¹
Binder: {sulforhodamine B}-GGSGGSGGSLNPHGAARAEVYLS-NH2 [Sulforhodamine B-(GGS)3MLL4Win-NH2]

koff [2]: 0.009 s⁻¹
kon [2]: 490000 M⁻¹ s⁻¹
Binder: {sulforhodamine B}-GGSGGSGGSVNPTGCARSEPKMS-NH2 [Sulforhodamine B-(GGS)3MLL3Win-NH2]

Kd [1]: 620 nM
koff [1]: 0.051 s⁻¹
kon [1]: 82000 M⁻¹ s⁻¹
B5: Biotinyl-(GGS)3SETd1AWin-NH2 (peptide)
peptide: Biotin-GGSGGSGGSEHQTGSARSEGYYP-NH2
SMILES: C[C@H](NC(=O)[C@H](CO)NC(=O)CNC(=O)[C@@H](NC(=O)[C@H](CCC(N)=O)NC(=O)[C@H](Cc1c[nH]cn1)NC(=O)[C@H](CCC(=O)O)NC(=O)[C@H](CO)NC(=O)CNC(=O)CNC(=O)[C@H](CO)NC(=O)CNC(=O)CNC(=O)[C@H](CO)NC(=O)CNC(=O)CNC(=O)CCCC[C@@H]1SC[C@@H]2NC(=O)N[C@@H]21)[C@@H](C)O)C(=O)N[C@@H](CCCNC(=N)N)C(=O)N[C@@H](CO)C(=O)N[C@@H](CCC(=O)O)C(=O)NCC(=O)N[C@@H](Cc1ccc(O)cc1)C(=O)N[C@@H](Cc1ccc(O)cc1)C(=O)N1CCC[C@H]1C(N)=O

koff [2]: 0.11 s⁻¹
kon [2]: 310000 M⁻¹ s⁻¹
Binder: {sulforhodamine B}-GGSGGSGGSEHQTGSARSEGYYP-NH2 [Sulforhodamine B-(GGS)3SETd1AWin-NH2]
